Our source for the binding result and Kd values is publication PMC4176348, “Structure analysis of free and bound states of an RNA aptamer against ribosomal protein S8 from Bacillus anthracis”.

Series [1] deals with T1, ribosomal protein S8 (B. anthracis) (Bacillus anthracis, UniProt Q81VR6 1-132). The experiment in a line: 1:1 complex. The following applies: protein: recombinant; tags: N-terminal 6xHis (pET28b NheI-XhoI).
In series [2] the target is ribosomal protein S8 (B. anthracis) (Bacillus anthracis, UniProt Q81VR6 1-132). The experiment in a line: fluorescence anisotropy; 10 mM Mg acetate. The following applies: protein: recombinant; tags: N-terminal 6xHis (pET28b NheI-XhoI); label: 5'-fluorescein; hairpin, asymmetric internal loop. For orientation: Fluorescence polarisation rises when a labelled molecule tumbles more slowly, as on binding a larger partner.

The target of series [3] is ribosomal protein S8 (E. coli) (Escherichia coli, UniProt P0A7W7 1-130). The experiment in a line: fluorescence anisotropy; 10 mM Mg acetate. The following applies: protein: recombinant, tags: N-terminal 6xHis (pET28b NheI-XhoI), label: 5'-fluorescein, hairpin.
The target of series [4] is T1, ribosomal protein S8 (B. anthracis). The experiment in a line: fluorescence anisotropy; 10 mM Mg acetate. Conditions: protein: recombinant; tags: N-terminal 6xHis (pET28b NheI-XhoI); label: 5'-fluorescein.

In the case of GGGAUGCUCAGUGAUCCUUCGGGAUAUCAGGGCAUCCC (structured_RNA) [RNA-2 aptamer (crystal)], the binding result in series [1] is listed as “binds”. Usually Kd stands for a measure of binding affinity in units of concentration. In the case of CGCUGGCGGGAUUAAGUCGACUUCGGUCGAAACUGGUCCCGGCAGCG (structured_RNA) [helix 21 16S rRNA S8 site, fluorescein hairpin], the Kd in series [2] came out at 180 ± 60 nM; in series [3] (asymmetric internal loop), 28 ± 7 nM. With CGCUGGCGGGUCAGUGAUCACUUCGGUGAUAUCAGACCCGGCAGCG (structured_RNA) [S8 RNA aptamer, fluorescein hairpin], the Kd in series [4] was 110 ± 30 nM; in series [3] (symmetric internal loop) it was 19 ± 4 nM.
